# Test results: patent publication US20170030891A1, “BLOOD CONDITION ANALYSIS DEVICE, BLOOD CONDITION ANALYSIS SYSTEM, BLOOD CONDITION ANALYSIS METHOD, AND PROGRAM” (SONY CORPORATION, priority 2014, published 2017)
# System: fibrinolysis system of the blood
# Assay: complex permittivity at 10 MHz of blood samples with fibrinolysis system promotor (tPA) and inhibitor (aprotinin)
# Conditions: blood sample of tPA=8 and aprotinin=0, FIG. 9
# Protocol: In addition, for example, in the case where the fibrinolysis system is evaluated, examples of coagulation factors to be evaluated include plasminogen and plasmin. In that case, as a drug to be added to the blood sample, an activator or inhibitor of plasminogen or plasmin is usable. FIG. 9 is a diagram showing time-dependent changes in the real part (∈′) of the complex permittivity at 10 MHz of blood samples having different fibrinolysis system promotor (tPA) and fibrinolysis system inhibitor (aprotinin) concentrations.
# For the evaluation of the fibrinolysis-system blood, for example, a value obtained by dividing the amplitude after 30 minutes from the time B shown in FIGS. 2A-2B by the amplitude at the time B (LI30: the source of clot firmness after a predetermined period of time from the maximum firmness accompanying fibrinolysis) can be used as an evaluation parameter.
molecule,measurement,value
"tPA: fibrinolysis system promotor (protein, UniProt P00750 36-562, looked up) Tissue-type plasminogen …: SYQVICRDEKTQMIYQQHQSWLRPVLRSNRVEYCWCNSGRAQCHSVPVKSCSEPRCFNGGTCQQALYFSDFVCQCPEGFAGKCCEIDTRATCYEDQGISYRGTWSTAESGAECTNWNSSALAQKPYSGRRPDAIRLGLGNHNYCRNPDRDSKPWCYVFKAGKYSSEFCSTPACSEGNSDCYFGNGSAYRGTHSLTESGASCLPWNSMILIGKVYTAQNPSAQALGLGKHNYCRNPDGDAKPWCHVLKNRRLTWEYCDVPSCSTCGLRQYSQPQFRIKGGLFADIASHPWQAAIFAKHRRSPGERFLCGGILISSCWILSAAHCFQERFPPHHLTVILGRTYRVVPGEEEQKFEVEKYIVHKEFDDDTYDNDIALLQLKSDSSRCAQESSVVRTVCLPPADLQLPDWTECELSGYGKHEALSPFYSERLKEAHVRLYPSSRCTSQHLLNRTVTDNMLCAGDTRSGGPQANLHDACQGDSGGPLVCLNDGRMTLVGIISWGLGCGQKDVPGVYTKVTNYLDWIRDNMRP",characteristics of time-dependent change of ∈′ at 10 MHz,exhibits similar characteristics to the blood of a patient with the fibrinolysis system promoted
